In the supplement of paper PMC7877785:
± gives the uncertainty stated by the source.

Test: self-splicing fitness, log relative to wild type (ln ratio); higher = more splicing; Tetrahymena group I intron in knt gene, E. coli kanamycin selection, DiMSum; sequences stand for … in CUCUCU…GGAGGGAAAAGUUAUCAGGCAUGCACCUGGUAGCUAGUCUUUAAACCAAUAGAUUGCAUCGGUUUAAAAGGCAAGACCGUCAAAUUGCGGGAAAGGGGUCAACAGCCGUUCAGUACCAAGUCUCAGGGGAAACUUUGAGAUGGCCUUGCAAAGGGUAUGGUAAUAAGCUGACGGACAUGGUCCUAACCACGCAGCCAAGUCCUAAGUCAACAGAUCUUCUGUUGAUAUGGAUGCAGUUCACAGACUAAAUGUCGGUCGGGGAAGAUGUAUUCUUCUCAUAAGAUAUAGUCGGACCUCUCCUUAAUGGGAGCUAGCGGAUGAAGUGAUGCAACACUGGAGCCGCUGGGAACUAAUUUGUAUGCGAAAGUAUAUUGAUUAGUUUUGGAGUACUCGUGGUCG
Outline: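 Pooled colonies went to amplicon sequencing on an Illumina HiSeq 2500 after six replicate transformations. The plates were LB agar with 100 μg/mL carbenicillin, 50 μM IPTG and 0.2% rhamnose, with or without 25 μg/mL kanamycin, incubated overnight at 37°C or 30°C. The E. coli BL21(DE3) library had all eight P1ex-region intron nucleotides randomised, the intron placed in the knt kanamycin-resistance gene on pET-22b(+). DiMSum fitness is the error-weighted combination of replicate fold changes, kanamycin against none, normalised to wild type.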

Sequence	self-splicing fitness (ln) (30 °C)	self-splicing fitness (ln) (37 °C)
GCCGAGCAAUAUUACGAACU	-2.13 ± 0.3	-0.52 ± 0.42
GCCGAGCAAUAUUACGAAGU	-2.51 ± 0.35	-1.14 ± 0.24
GCCGAGCAAUAUUACGAGAC	-2.93 ± 0.11	-1.54 ± 0.1
GCCGAGCAAUAUUACGAGGC	-3.23 ± 0.35	-2.3 ± 0.37
GCCGAGCAAUAUUACGAUAA	-2.07 ± 0.21	-2.08 ± 0.26
GCCGAGCAAUAUUACGAUCU	–	-0.908 ± 0.4
GCCGAGCAAUAUUACGAUUU	-2.04 ± 0.14	-0.375 ± 0.14
GCCGAGCAAUAUUACGCCAU	-2.88 ± 0.23	-2.5 ± 0.38
GCCGAGCAAUAUUACGCCGG	-3.21 ± 0.3	-2.08 ± 0.38
GCCGAGCAAUAUUACGCGAA	-1.84 ± 0.12	-1.34 ± 0.17
GCCGAGCAAUAUUACGCUCC	-0.576 ± 0.44	–
GCCGAGCAAUAUUACGCUUC	-2.53 ± 0.18	-1.65 ± 0.25
GCCGAGCAAUAUUACGGACG	-2.44 ± 0.18	-0.841 ± 0.2
GCCGAGCAAUAUUACGGCCU	-2.54 ± 0.42	-1.56 ± 0.35
GCCGAGCAAUAUUACGGCUC	–	-1.49 ± 0.46
GCCGAGCAAUAUUACGGGAU	-2.03 ± 0.11	-0.76 ± 0.13
GCCGAGCAAUAUUACGGGUC	-3.68 ± 0.16	-2.77 ± 0.11
GCCGAGCAAUAUUACGUAAC	-2.89 ± 0.19	-0.977 ± 0.2
GCCGAGCAAUAUUACGUCUA	-3.15 ± 0.29	-0.742 ± 0.15
GCCGAGCAAUAUUACGUUAG	-3.58 ± 0.17	-2.65 ± 0.19
GCCUAGCAAUAUUACGACUC	-0.376 ± 0.14	0.0998 ± 0.17
GCCUAGCAAUAUUACGAGAG	-3.76 ± 0.32	-1.44 ± 0.12
GCCUAGCAAUAUUACGAUGA	-2.48 ± 0.16	-1.4 ± 0.14
GCCUAGCAAUAUUACGCCGA	-0.66 ± 0.49	–
GCCUAGCAAUAUUACGCGCC	-2.42 ± 0.34	-1.39 ± 0.31

Sequence	self-splicing fitness (ln) (30 °C)	self-splicing fitness (ln) (37 °C)
GCCUAGCAAUAUUACGCUGG	-2.92 ± 0.17	-3.83 ± 0.42
GCCUAGCAAUAUUACGGAAG	-2.96 ± 0.17	-1.44 ± 0.17
GCCUAGCAAUAUUACGGGAG	-0.724 ± 0.094	-0.391 ± 0.094
GCCUAGCAAUAUUACGUGAA	-0.836 ± 0.073	0.346 ± 0.077
GCGAAGCAAUAUUACGACAC	-0.709 ± 0.21	0.892 ± 0.34
GCGAAGCAAUAUUACGACUA	0.115 ± 0.22	-1.94 ± 0.2
GCGAAGCAAUAUUACGAGUG	-1.09 ± 0.1	-2.13 ± 0.12
GCGAAGCAAUAUUACGAUAG	-2.35 ± 0.14	-1.51 ± 0.17
GCGAAGCAAUAUUACGAUUA	-1.52 ± 0.3	-0.0699 ± 0.23
GCGAAGCAAUAUUACGCCCC	-2.37 ± 0.46	–
GCGAAGCAAUAUUACGCGUG	-1.54 ± 0.12	-1.7 ± 0.13
GCGAAGCAAUAUUACGCUCG	-2.95 ± 0.29	-2.12 ± 0.27
GCGAAGCAAUAUUACGCUGA	-0.605 ± 0.24	-1.5 ± 0.34
GCGAAGCAAUAUUACGGAAA	-3.34 ± 0.36	-1.57 ± 0.27
GCGAAGCAAUAUUACGGCAU	-1.25 ± 0.099	-0.00655 ± 0.089
GCGAAGCAAUAUUACGGCCU	-1.4 ± 0.12	0.334 ± 0.16
GCGAAGCAAUAUUACGGCUC	-1.78 ± 0.17	-2.01 ± 0.25
GCGAAGCAAUAUUACGGCUU	-2.39 ± 0.36	–
GCGAAGCAAUAUUACGGGUA	-3.04 ± 0.23	-0.904 ± 0.17
GCGAAGCAAUAUUACGGUAG	-4.07 ± 0.42	-2.77 ± 0.26
GCGAAGCAAUAUUACGGUCC	-3.6 ± 0.25	-2.27 ± 0.31
GCGAAGCAAUAUUACGGUGG	-4.24 ± 0.23	-3.08 ± 0.27
GCGAAGCAAUAUUACGUCCG	-1.24 ± 0.14	-0.577 ± 0.2
GCGAAGCAAUAUUACGUGAG	-1.89 ± 0.091	-2.01 ± 0.1
GCGAAGCAAUAUUACGUGCU	-2.63 ± 0.16	-2.75 ± 0.2

Sequence	self-splicing fitness (ln) (30 °C)	self-splicing fitness (ln) (37 °C)
GCGAAGCAAUAUUACGUUUG	-2.87 ± 0.14	-2.68 ± 0.23
GCGCAGCAAUAUUACGACCU	0.0686 ± 0.071	0.0313 ± 0.084
GCGCAGCAAUAUUACGACUU	-0.0557 ± 0.087	0.099 ± 0.093
GCGCAGCAAUAUUACGAGGA	-1.89 ± 0.3	-0.618 ± 0.16
GCGCAGCAAUAUUACGAGGC	-2.7 ± 0.35	-1.29 ± 0.24
GCGCAGCAAUAUUACGAGGG	-2.78 ± 0.09	-1.84 ± 0.098
GCGCAGCAAUAUUACGAGUC	-1.6 ± 0.13	-1.36 ± 0.24
GCGCAGCAAUAUUACGAUGA	-0.132 ± 0.099	-0.33 ± 0.092
GCGCAGCAAUAUUACGCACA	-1.5 ± 0.12	-0.062 ± 0.11
GCGCAGCAAUAUUACGCCCA	0.169 ± 0.24	-0.637 ± 0.33
GCGCAGCAAUAUUACGCUAC	-1.82 ± 0.17	-1.71 ± 0.3
GCGCAGCAAUAUUACGGAAA	-1.97 ± 0.23	-0.698 ± 0.2
GCGCAGCAAUAUUACGGAUU	-0.79 ± 0.039	-0.328 ± 0.056
GCGCAGCAAUAUUACGGGCU	-3.6 ± 0.23	-3.02 ± 0.27
GCGCAGCAAUAUUACGGGGG	-2.2 ± 0.12	-1.4 ± 0.12
GCGCAGCAAUAUUACGGGGU	-2.94 ± 0.096	-2.31 ± 0.13
GCGCAGCAAUAUUACGGUAA	-1.55 ± 0.11	0.236 ± 0.11
GCGCAGCAAUAUUACGGUUC	-0.737 ± 0.077	0.0559 ± 0.082
GCGCAGCAAUAUUACGGUUU	-0.323 ± 0.048	-0.167 ± 0.057
GCGCAGCAAUAUUACGUCGA	-0.665 ± 0.09	0.801 ± 0.13
GCGCAGCAAUAUUACGUGAA	0.0716 ± 0.076	0.149 ± 0.074
GCGCAGCAAUAUUACGUGAG	-0.213 ± 0.054	0.445 ± 0.082
GCGCAGCAAUAUUACGUGCA	-2.09 ± 0.096	-0.706 ± 0.08
GCGGAGCAAUAUUACGACAU	-1.38 ± 0.016	-0.573 ± 0.035
GCGGAGCAAUAUUACGACCU	-0.927 ± 0.2	-1.02 ± 0.19

Sequence	self-splicing fitness (ln) (30 °C)	self-splicing fitness (ln) (37 °C)
GCGGAGCAAUAUUACGAGUG	-2.86 ± 0.34	-2.71 ± 0.48
GCGGAGCAAUAUUACGCUAU	-3.16 ± 0.36	-2.53 ± 0.49
GCGGAGCAAUAUUACGCUGG	–	-2.1 ± 0.4
GCGGAGCAAUAUUACGGCGU	-3.49 ± 0.33	-2.08 ± 0.31
GCGGAGCAAUAUUACGUCGG	-2.62 ± 0.12	-1.78 ± 0.17
GCGGAGCAAUAUUACGUUUC	-2.57 ± 0.39	–
GCGUAGCAAUAUUACGAACG	-2.48 ± 0.29	-1.79 ± 0.27
GCGUAGCAAUAUUACGAUAA	-0.962 ± 0.21	-0.707 ± 0.24
GCGUAGCAAUAUUACGAUUC	-0.141 ± 0.098	-0.0224 ± 0.11
GCGUAGCAAUAUUACGCACC	-4.01 ± 0.37	-1.49 ± 0.34
GCGUAGCAAUAUUACGCGAA	–	-1.31 ± 0.39
GCGUAGCAAUAUUACGCGCU	-3.31 ± 0.2	-2.84 ± 0.35
GCGUAGCAAUAUUACGCGGC	-2.64 ± 0.27	-2.08 ± 0.46
GCGUAGCAAUAUUACGGCCG	-1.01 ± 0.16	0.509 ± 0.34
GCGUAGCAAUAUUACGGCUA	-1.92 ± 0.26	-0.79 ± 0.2
GCGUAGCAAUAUUACGGUAG	-2.9 ± 0.28	-2.03 ± 0.23
GCGUAGCAAUAUUACGGUCA	-0.597 ± 0.081	-0.142 ± 0.083
GCGUAGCAAUAUUACGGUGU	-3.33 ± 0.21	-1.48 ± 0.14
GCGUAGCAAUAUUACGGUUC	-2.26 ± 0.14	-0.643 ± 0.18
GCGUAGCAAUAUUACGGUUG	-2.96 ± 0.13	-1.75 ± 0.14
GCGUAGCAAUAUUACGUAAC	-3.58 ± 0.27	-0.0467 ± 0.15
GCGUAGCAAUAUUACGUAGG	-3.73 ± 0.22	-2.02 ± 0.19
GCGUAGCAAUAUUACGUCGA	-2.69 ± 0.35	-1.85 ± 0.32
